# Numbering of substitutions follows the chain as printed. Like-named read-outs stand apart in the source and are kept apart here.
# B1: mut-sFasL: mutant sFasL molecule in which 8 charged amino acids in the 26 amino acid stalk region were changed to alanine (protein)
# chain: QLFALQAALAALAASTSQMATASSLAKQIGHPSPPPEKKELRKVAHLTGKSNSRSMPLEWEDTYGIVLLSGVKYKKGGLVINETGLYFVYSKVYFRGQSCNNLPLSHKVYMRNSKYPQDLVMMEGKMMSYCTTGQMWARSSYLGAVFNLTSADHLYVNVSELSLVNFEESQTFFGLYKL
# Assays:
# WT-sFasL [1] = target: T1, WT-sFasL (Homo sapiens, UniProt P48023); test: Attenuation of WT-sFasL-induced caspase 3/7 activity in Jurkat cells by molar mixtures of WT and mut-sFasL; format: cell-based; details: serial dilutions of mut sFasL
# T1 construct: made in house
# T1 sequence (P48023 103-281): B1 chain with A4H, A7K, A8E, A11E, A13R, A14E, A20H, A26E
# Description: (§1) FIGS. 2A-D show the mut-sFasL has inhibitory properties. Highly Fas-sensitive Jurkat cells (FIG. 2A), primary human lung small airway epithelial cells (SAEC, FIG. 2B) or murine lung epithelial cells (LA4, FIG. 2D) were incubated with serial dilutions of mutated FasL, (mut sFasL). […] As a confirmatory test, the experiment was repeated using SAEC and an annexin-V translocation assay (FIG. 2C). WT=wild type (no mutant). […] Each dot represents individual data; lines represent means±SD. *=P<0.05; **=P<0.01, ***P<0.001 when compared to WT. One way ANOVA with SIdak's post hoc analysis.
# Methods. Cells and cell culture. To test Fas responses in vitro, the highly-Fas sensitive cell line, Jurak, was used. […]
# (§2) Measurements of apoptotic cascade activation. Apoptotic cascade activation was assessed by determining caspase 3/7 activity and Annexin V externalization. Caspase-3/7 activity was measured using a commercial substrate (Caspase-Glo 3/7 Assay, Promega, Madison, Wis., Cat #G8090) following manufacturer's instructions. Annexin V was measured with a luminescent commercial assay that allows for measurement of annexin V externalization in adherent cells (RealTime-Glo Annexin V assay, Promega, Madison, Wis., Cat #JA1011). Luminescence was measured with a Synergy H4 Microplate Reader (BioTek, Winooski, Vt.). […]
# WT-sFasL [2] = target: T1, WT-sFasL; test: Annexin-V externalization (translocation) assay in SAEC with WT:mut sFasL mixtures; format: cell-based; details: WT:mut sFasL molar ratios of 1:27 and 1:81
# Description: FIGS. 2A-D show the mut-sFasL has inhibitory properties. Highly Fas-sensitive Jurkat cells (FIG. 2A), primary human lung small airway epithelial cells (SAEC, FIG. 2B) or murine lung epithelial cells (LA4, FIG. 2D) were incubated with serial dilutions of mutated FasL, (mut sFasL). […] As a confirmatory test, the experiment was repeated using SAEC and an annexin-V translocation assay (FIG. 2C). WT=wild type (no mutant). […] Each dot represents individual data; lines represent means±SD. *=P<0.05; **=P<0.01, ***P<0.001 when compared to WT. One way ANOVA with SIdak's post hoc analysis. […]
# as §2
# WT-sFasL [3] = target: T1, WT-sFasL; test: Attenuation of WT-sFasL-induced caspase 3/7 activity in primary human small airway epithelial cells (SAEC); format: cell-based; details: for inhibitory effect on ability of WT-sFasL to induce caspase 3-7 activity: at higher molar ratios than in Jurkat
# Description: as §1
# Small airway epithelial cells (SAEC) are primary human cells isolated from the 1-mm bronchiole area of normal human lung tissue, and were purchased from Lonza (Walkersville, Md., catalogue number CC-2547, lot number 0000669507). Cells used came from a single donor and confirmed mycoplasma-free by the vendor. Cells were grown at 37° C., 5% CO2 in small airway epithelial basal medium (SAGM, Lonza, Cat #CC-3119 CC-3119) supplemented with SAGM SingleQuots (Lonza, catalogue number CC-4124), and used between passages 2 and 4.
# Measurements of apoptotic cascade activation. Apoptotic cascade activation was assessed by determining caspase 3/7 activity and Annexin V externalization. Caspase-3/7 activity was measured using a commercial substrate (Caspase-Glo 3/7 Assay, Promega, Madison, Wis., Cat #G8090) following manufacturer's instructions. Annexin V was measured with a luminescent commercial assay that allows for measurement of annexin V externalization in adherent cells (RealTime-Glo Annexin V assay, Promega, Madison, Wis., Cat #JA1011). Luminescence was measured with a Synergy H4 Microplate Reader (BioTek, Winooski, Vt.).
# The mut-sFasL attenuates the activity of WT-sFasL. Then, the caspase 3/7 activity of Jurkat cells incubated with different molar ratios of WT and mut-sFasL was investigated. […] The molar mixtures on primary human small airway epithelial cells (SAEC) were tested. These cells are commercially isolated from the distal airways of human lungs. […]
# WT-sFasL [4] = target: T1, WT-sFasL; test: Attenuation of WT-sFasL-induced caspase 3/7 activity in murine lung epithelial cells (LA4); format: cell-based, mouse
# Description: as §1
# Mouse lung epithelial LA-4 cells were obtained from ATCC (catalogue number CCL-196, lot number 3404534). This cell line is derived from a A/He mouse lung adenoma (Stoner G, et al. Cancer Res. 1975; 35(8):2177-85). […]
# as §2
molecule,measurement,setting,value
B1,inhibition of wild type sFasL activity (caspase 3/7),WT-sFasL [1],dose-dependent inhibition of wild type sFasL activity
same,Annexin V translocation,WT-sFasL [2],significantly reduced
same,caspase 3/7 activity,WT-sFasL [3]; WT:mut sFasL molar ratios of 1:27 and 1:81,significantly reduced caspase 3/7 activity
same,inhibitory effect on ability of WT-sFasL to induce caspase 3-7 activity,WT-sFasL [3],inhibitory effect
same,inhibitory effect on ability of WT-sFasL to induce caspase 3-7 activity,WT-sFasL [3]; listed as 8-mutant protein,an inhibitory effect of the 8-mutant protein was detected
same,inhibition of WT-sFasL-induced caspase 3-7 activity,WT-sFasL [4],inhibited the ability of WT-sFasL to induce caspase 3-7 activity
same,inhibition of WT-sFasL-induced caspase 3-7 activity,WT-sFasL [4]; listed as 8-mutant protein,an inhibitory effect of the 8-mutant protein was detected

# Reference: patent US20220002363A1, “COMPOSITIONS AND METHODS FOR TREATING PULMONARY DISEASE” (United States Government As Represented By The Department …, priority 2020, published 2022)
